Test results published in publication PMC6298560, “Staphylococcus aureus Cas9 is a multiple-turnover enzyme”.

What was measured:
SauCas9 = molecular target: T1, SauCas9 (Staphylococcus aureus, UniProt J7RUA5 1-1053); assay: EMSA; 10 mM Mg2+; EMSA: 1x NEBuffer 3.1 (100 mM NaCl, 50 mM Tris-HCl, 10 mM MgCl2, 100 ug/ml BSA, pH 7.9 at 25 C), 50 pM sgRNA, 40 min at 22 C, 6% native TBE gel in cold room; conditions: protein: recombinant; label: 5'-32P; single guide RNA, GAAA tetraloop, two 3' stem-loops
T1 sequence: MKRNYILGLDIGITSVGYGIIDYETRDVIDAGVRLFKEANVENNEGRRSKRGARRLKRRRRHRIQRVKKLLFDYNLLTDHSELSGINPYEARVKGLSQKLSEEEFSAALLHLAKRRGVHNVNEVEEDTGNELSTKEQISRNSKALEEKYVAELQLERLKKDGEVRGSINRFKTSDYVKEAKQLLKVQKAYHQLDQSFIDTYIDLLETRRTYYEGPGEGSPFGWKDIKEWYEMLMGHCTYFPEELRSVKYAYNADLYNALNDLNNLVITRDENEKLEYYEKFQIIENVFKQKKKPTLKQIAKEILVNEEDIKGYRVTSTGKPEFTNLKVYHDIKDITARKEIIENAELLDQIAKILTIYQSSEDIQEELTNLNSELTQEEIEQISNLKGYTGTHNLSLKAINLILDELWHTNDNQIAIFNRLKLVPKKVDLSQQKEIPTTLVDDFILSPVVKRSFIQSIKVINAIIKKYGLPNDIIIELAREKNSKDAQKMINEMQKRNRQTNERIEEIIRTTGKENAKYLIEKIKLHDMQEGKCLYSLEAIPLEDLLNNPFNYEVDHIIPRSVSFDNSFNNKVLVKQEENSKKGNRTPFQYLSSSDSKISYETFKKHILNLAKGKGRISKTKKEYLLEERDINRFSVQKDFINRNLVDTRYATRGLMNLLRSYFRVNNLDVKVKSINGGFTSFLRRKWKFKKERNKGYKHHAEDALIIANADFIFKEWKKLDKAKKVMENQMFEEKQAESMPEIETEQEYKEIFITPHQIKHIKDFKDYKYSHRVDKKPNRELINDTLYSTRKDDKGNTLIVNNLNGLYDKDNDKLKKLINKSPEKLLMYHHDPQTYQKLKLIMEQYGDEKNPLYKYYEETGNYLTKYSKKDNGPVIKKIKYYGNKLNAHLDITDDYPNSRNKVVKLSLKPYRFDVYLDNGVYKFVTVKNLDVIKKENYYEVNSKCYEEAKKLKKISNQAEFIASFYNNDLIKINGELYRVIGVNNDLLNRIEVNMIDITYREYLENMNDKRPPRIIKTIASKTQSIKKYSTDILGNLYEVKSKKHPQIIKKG

SpyCas9 = SpyCas9 (Streptococcus pyogenes, UniProt Q99ZW2 1-1368); assay: as above; conditions: protein: recombinant; label: 5'-32P; single guide RNA, GAAA tetraloop, three 3' stem-loops
SpyCas9, sequence (Q99ZW2 whole entry): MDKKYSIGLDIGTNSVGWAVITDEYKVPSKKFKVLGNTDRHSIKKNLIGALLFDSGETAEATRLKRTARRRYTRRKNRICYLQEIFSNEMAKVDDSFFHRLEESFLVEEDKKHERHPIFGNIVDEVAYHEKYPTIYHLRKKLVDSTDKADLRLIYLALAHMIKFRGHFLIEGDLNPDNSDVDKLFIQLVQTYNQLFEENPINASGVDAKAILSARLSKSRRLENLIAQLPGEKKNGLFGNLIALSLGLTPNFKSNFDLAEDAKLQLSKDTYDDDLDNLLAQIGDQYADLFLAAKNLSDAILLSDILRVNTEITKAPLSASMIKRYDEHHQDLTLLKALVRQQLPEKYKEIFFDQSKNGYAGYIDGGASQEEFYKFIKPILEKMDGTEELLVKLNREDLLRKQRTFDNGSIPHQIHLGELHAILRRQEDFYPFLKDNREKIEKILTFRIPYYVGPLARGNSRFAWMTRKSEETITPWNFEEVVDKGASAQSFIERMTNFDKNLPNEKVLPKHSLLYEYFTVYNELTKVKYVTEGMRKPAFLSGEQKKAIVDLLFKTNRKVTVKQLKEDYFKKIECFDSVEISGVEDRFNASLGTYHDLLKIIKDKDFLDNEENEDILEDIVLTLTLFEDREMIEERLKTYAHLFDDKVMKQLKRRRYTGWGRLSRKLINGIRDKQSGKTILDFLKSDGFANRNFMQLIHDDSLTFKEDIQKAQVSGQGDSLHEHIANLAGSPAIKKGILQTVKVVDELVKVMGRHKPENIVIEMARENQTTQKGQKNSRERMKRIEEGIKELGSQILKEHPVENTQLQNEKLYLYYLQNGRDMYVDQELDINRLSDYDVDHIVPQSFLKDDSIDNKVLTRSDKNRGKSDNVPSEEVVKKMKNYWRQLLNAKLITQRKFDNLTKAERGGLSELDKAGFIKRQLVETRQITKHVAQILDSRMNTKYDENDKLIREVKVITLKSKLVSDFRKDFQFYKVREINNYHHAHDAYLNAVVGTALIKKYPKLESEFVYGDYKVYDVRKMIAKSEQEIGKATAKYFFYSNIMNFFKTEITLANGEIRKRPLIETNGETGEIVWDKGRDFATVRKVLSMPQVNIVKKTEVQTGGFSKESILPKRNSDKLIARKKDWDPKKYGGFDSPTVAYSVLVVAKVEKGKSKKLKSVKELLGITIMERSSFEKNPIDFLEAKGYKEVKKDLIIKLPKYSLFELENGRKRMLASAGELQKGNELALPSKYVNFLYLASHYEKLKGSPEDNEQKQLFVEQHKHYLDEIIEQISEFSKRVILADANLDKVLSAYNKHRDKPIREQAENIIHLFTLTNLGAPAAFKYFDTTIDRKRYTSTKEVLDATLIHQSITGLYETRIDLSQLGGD

B1: S. aureus sgRNA (structured_RNA)
RNA: GUGAAAGUUAAUCGAACUGUGUUUUAGUACUCUGGAAACAGAAUCUACUAAAACAAGGCAAAAUGCCGUGUUUAUCUCGUCAACUUGUUGGCGAGAU
Kd (SauCas9): 3.4 nM

B2: S. pyogenes sgRNA (structured_RNA)
RNA: GUGAAAGUUAAUCGAACUGUGUUUUAGAGCUAGAAAUAGCAAGUUAAAAUAAGGCUAGUCCGUUAUCAACUUGAAAAAGUGGCACCGAGUCGGUGCUUUU
Kd (SpyCas9): 0.29 ± 0.08 nM
